Data as given in the DeepSol protein solubility set.

Test: soluble on expression in E. coli; label from the status in PepcDB or PDB records

Row | Sequence | soluble on expression in E. coli
1 | MMKKILVACGTGMSTSTMIAQKLQDFLAEQGIAATTAQCCLNEIPLNCNGMDLIVTSMRTHSDYGIPTLNGAALLTGINDDALKQEIKALLTQ | not soluble
2 | MSLEVKLNENERIDDLQCKGLKIIQKKAGFCFGLDAVLLANFADIKKGDTVIDLGTGTGIIAILIAGKTEAKSIIGLEIQEEMAEMAQRSVKLNNLEDRVKIVCGDIKNSVEMFGASKFDVVVTNPPYMNQGGGLLNISDTKAISRHEIKCTLEDVIKASSKLLVPGGQFAMVHRPDRLVDIIWLMRKYSIEPKYLQFVHPYPRKKANLILIKGARQGRVQLKMLEPLYVYDENGNYSKEIDNIYGREVRNEGHHHHHH | soluble
3 | MGSDKIHHHHHHMSATSLYRLFAPQIEFLSPAEKQVFFYIDNHISTIEKMSLTSLAESTNVSTTTVIRMCHKLKLSGFSELKFLLHSDKTETKPLSKDYSSTFLEKIRLGIEQLPKKEIEQVATRIAYAPKIYIACLGMTKTLGEYFSKSLVTSKKNVVFTYDSFIIDILPQIVERDDLIIIISESGGTENTLSLAEHLKYNLSNVIAIVNNPNAQISQYVETIIYASSEEFDEDSFKHHHAPLLIVIDLILNIFEQQKKLI | not soluble
4 | SDLMTPWPIIEKRIVAAASADFVTAIYNPKSEGRYWQLYRFVEIFMQYRSADTPVGLVRQAGREEEQVTVTTLGEFDPEVVDMFTVVLVGNSQSYCYEGHFITPRGYYPEEEIEAKGI | not soluble
5 | MKNTELEQLINDKLNSAAISDYAPNGLQVEGKETVQKIVTGVTASQALLDEAVRLQADAVIVHHGYFWKGESPVIRGMKRRRLKTLLANDINLYGWHLPLDAHPELGNNAQLAALLGITVKGEIEPLVPWGELSMPVPGLELASWIEARLGRKPLWCGDTGPENVQRVAWCTGGGQSFIDSAARFGVDAFITGEVSEQTIHSAREQGLHFYAAGHHATERGGIRALSEWLNENTALDVTFIDIPNPALEHHHHHH | soluble
6 | MTITKLAWRDLVPDTDSYQEIFAQPHLIDENDPLFSDTQPRLQFALEQLLHTRASSSFMLAKAPEESEYLNLIANAARTLQSDAGQLVGGHYEVSGHSIRLRHAVSADDNFATLTQVVAADWVEAEQLFGCLRQFNGDITLQPGLVHQANGGILIISLRTLLAQPLLWMRLKNIVNRERFDWVAFDESRPLPVSVPSMPLKLKVILVGERESLADFQEMEPELSEQAIYSEFEDTLQIVDAESVTQWCRWVTFTARHNHLPAPGADAWPILIREAARYTGEQETLPLSPQWILRQCKEVASLCDGDTFSGEQLNLMLQQREWREGFLAERMQDEILQEQILIETEGERIGQINALSVIEFPGHPRAFGEPSRISCVVHIGDGEFTDIERKAELGGNIHAKGMMIMQAFLMSELQLEQQIPFSASLTFEQSYSEVDGDSASMAELCALISALADVPVNQSIAITGSVDQFGRAQPVGGLNEKIEGFFAICQQRELTGKQGVIIPTANVRHLSLHSELVKAVEEGKFTIWAVDDVTDALPLLLNLVWDGEGQTTLMQTIQERIAQASQQEGRHRFPWPLRWLNWFIPN | soluble
7 | GKNTPKSAIIYTTMGDIHISLFYKECKKTVQNFSVHSINGYYNNCIFHRVIKHFMVQTGDPSGDGTGGESIWGNEFEDEFFDHLNHSKPFMVSMANCGPNTNGSQFFITTVPCPWLDFKHTVFGKVTQGSKIVLDIEKVRTDKRDKPLEDIKILNIKINN | soluble
8 | MSLERLRVAAYCRVSTDSEDQLNSYKSQVQYYTDMIKKNKEWVLADIYADEAITGTQVTKREDFQRMINDCMNGEIDMVITKSISRFARNTLDTLKYVRMLKERNIAVYFEDEKINTLTMDGELLLVVLSSVAQQEVENISANVKKGLKMKMKRGELVGFQGCLGYDYHPEDKTITVNQEEAEIVRYIFNRYVDGAGGSVIGQELENLGYKTKYGSSTWAPSTVIGIIKNEKYKGDILLGKTFTVDPISKRRLENMGEEDKFYMKDHHEPIISEEVFEKAQEILNRRNKNREGHHHHHH | soluble
9 | QSQGVLSSFPAPQAVQDNPAMPTSSGSEGNVKLCSLEEAQRIWKQKSAEIYPIMDKSSRTRLALIICNEEFDSIPRRTGAEVDITGMTMLLQNLGYSVDVKKNLTASDMTTELEAFAHRPEHKTSDSTFLVFMSHGIREGICGKKHSEQVPDILQLNAIFNMLNTKNCPSLKDKPKVIIIQAARGDSPGVVWFKDSVGVSGNLSLPTTEEFEDDAIKKAHIEKDFIAFCSSTPDNVSWRHPTMGSVFIGRLIEHMQEYACSCDVEEIFRKVRFSFEQPDGRAQMPTTERVTLTRCFYLFPGH | soluble
10 | SLKEPRWRDPELPEVLAMLRHPVDPVKANAAAYLQHLCFENEGVKRRVRQLRGLPLLVALLDHPRAEVRRRACGALRNLSYGRDTDNKAAIRDCGGVPALVRLLRAARDNEVRELVTGTLWNLSSYEPLKMVIIDHGLQTLTHEVIVPHSGWEREPNEDSKPRDAEWTTVFKNTSGCLRNVSSDGAEARRRLRECEGLVDALLHALQSAVGRKDTDNKSVENCVCIMRNLSYHVHKEVPGADRYQEAEPGPLGSAVGSQRRRRDDASCFGGKKAKEEWFHQGKKDGEMDRNFDTLDLPKRTEAAKGFELLYQPEVVRLYLSLLTESRNFNTLEAAAGALQNLSAGNWMWATYIRATVRKERGLPVLVELLQSETDKVVRAVAIALRNLSLDRRNKDLIGSYAMAELVRNVRNAQAPPRPGACLEEDTVVAVLNTIHEIVSDSLDNARSLLQARGVPALVALVASSQSVREAKAASHVLQTVWSYKELRGTLQKDGWTKARFQSAAATAKGPK | soluble
11 | MNANVYQHFRKDEHPFIDTVGDWLEQVEMQYAPYLTDFLDPRQAYILETLIRQNSDLSFTFYGGYEQAERKRCLIYPAYYIPEETDFGVVLFEIIYPSKFATLSHGKILGTLMNVGVRREAFGDIISDGDKWQVFIAQEVAGFVVNQVDKIGKITVRLEERDYTQILIPKDGWQEERTTMSSLRLDSVISAVFNISRQRSKQLIESGKVKVNWTETTRPDFALDLLDIVSIRGFGRLQIQELEGKTKKEKFRVLLGVLRK | not soluble
12 | MAHHHHHHMSDSALLEGVSFPVEPFAEKHRKILALLAHAATQAVNTRSNEVVFDVLCSSEPSLARLYPEVAVLQGVHQIRRVLRNLQDSQPHVRPMYLKMIVDSLKDMNEMLPDPLLLVIARTVEILEGEGRGFRELEPHLLDLVEYIQVVILRETKLLQCRGTLITLRLRGVPPFVASETESTT | not soluble
13 | MGSDKIHHHHHHMETPRREAFRYHEVEQHVLRLIDSKQYPPGSRLPSLRAVARTLSASLATVCHAYEELERRGVVESRPRSGYYVRTLPSPLPVPHSAPAEEEEPREANRSRLIATVLEAVGNPQMAPFGVVSPDPSLLPGKKLGQILAELSRRNAEQCVAYETIAGNAEYRRQIAKRACEDGMPTRASEVVATTGAMEALYIALRVLTRPGDNVLIQSPTYYCFLQLLETLGLRAVEIPSDPKHGINPADLTKALSTFEVAACILSGNFNNPDGALTPDAAKREIVDILAARGIPLVDDDVSADLHFDAQRPASFKQYDKKGLVVFCSSFSKTIAPGYRAGWMLPGRFMEKALEVKATTNVCCATPTQAAVGEFMRLGLYDRQLKKLRSAFQTQICAMHECIGSAFPDGTRVTSPRGGGVLWVELPAAVNGVELFFKARARRVGIAPGSIFSTRDRFSNYIRLSCCGIWNPRMEEALRDLGRLARELT | not soluble
14 | MIYEIKFAHGESNVFAISDIELAPQTEVILRSDKGNFYGKIVREISEEANLEIHHTIVREVNEDDLQVIAKLEERSKQAKDKVRQLVIEQGLEMKIIDVAYNFDQMQLFISFTAENRVDFRLLLRELATTFRIRIELRQIGPRDAAKIHGGLGPCGRPLCCSEFVYEFPNVSIKMAKNQNLSLKQNKLNGLCGRLMCCLTYEDSFYKEAQQLFPDFGEFVTTSEGKGKVVGLNVLKNRVKIRFGEYSKDFELAEIEVNHGLEHHHHHH | soluble
15 | MDGISLYDDCVMLAYNKEVRRNCLPFTCGENDLDDFFLNDADLYADELLGKTYCWVTTEIPHRIVALFTLSNDSIKTRLISPNDKNRLQRNIVNPKRGRSYPAVLIGRLGVNLEYQGTSSHVGRQLMAFIKDWFRHEDNKTGCRFIVVDAYNEEKILRYYERNGFVPLYKTDVIEKQYYDIPQDEPLKTRLLYFDLKKD | not soluble
16 | MKWGFRWYGAAGDAIPLKHIRQIPGITGVVGTLLNKLPGDVWTVAEIQALKQSVEQEGLALLGIESVAIHDAIKAGTDQRDHYIDNYRQTLRNLGKCGISLVCYSFKPIFGWAKTDLAYENEDGSLSLLFDQAVVENMQPEDMYQLIHSQSKGFRLPGWEEERLQQFQELKAMYAGVTEEDLVENLRYFLERVIPVCEEENIKMGIHPDDPPWEIFGLPRITKNLADLKRILSLVDSPANGITFCTGSLGADPTNDLPTMIREIGHRINFVHFRNVKYLGEHRFEETAHPSVAGSLDMAELMQALVDVGYEGVIRPDHGRAIWDEKAMPGYGLYDRAMGLTYIQGLYEATKAKQNRKLEHHHHHH | soluble
17 | MGSDKIHHHHHHMNTHNILIIGQGDIGLPVTNKLAQNGVNVTGLARRKRQNYALSDHAKFMQADALTLSPEQLQDFTHIAIIVTPDEYSTSGYHNSYLAINQHLALLADKLSNLQRVVFISSTGVYGQDNGEWIDEDTVPMLPEREASQVILQAEQALQQVFHDRAIIIRPSGIYGRARLMRVRKAKEPQKQPIAAGAWTNRIMDSDLVNIIAKVLTIKAPKPIYIATDYLPVTSFALTTWLSEQLDEALPVLDDKNSVMTGKRLHSNIPLSWLMYPDWQIGYQDILRHQD | not soluble
18 | MEKMHITNQEHDAFVKSHPNGDLLQLTKWAETKKLTGWYARRIAVGRDGEVQGVAQLLFKKVPKLPYTLCYISRGFVVDYSNKEALNALLDSAKEIAKAEKAYAIKIDPDVEVDKGTDALQNLKALGFKHKGFKEGLSKDYIQPRMTMITPIDKNDDELLNSFERRNRSKVRLALKRGTTVERSDREGLKTFAELMKITGERDGFLTRDISYFENIYDALHEDGDAELFLVKLDPKENIAKVNQELNELHAEIAKWQQKMETSEKQAKKAQNMINDAQNKIAKNEDLKRDLEALEKEHPEGIYLSGALLMFAGSKSYYLYGASSNEFRDFLPNHHMQYTMMKYAREHGATTYDFGGTDNDPDKDSEHYGLWAFKKVWGTYLSEKIGEFDYILNQPLYQLIEQVKPRLTKAKIKISRKLKRK | not soluble
19 | MLRSVPFDLVTRLMTTHFVSRQIFIGSGRVGIGEHSENAGYQLSQRADYFHMKVGLQTTFDRPIINTRDESHSTDEYRRLHVIVGDANRMDVPQALKLGTTSMLLWLLEHADMAEIDLNEALGPLTLADPVEAMHTVSHDLTLAAPLPLETGGTTTAWQMQVTLRGLVYAAAATVYGTDTSGEPAWPDRSTRNIMAMWGQALADVATVRHADDDGRLTMREQASRLEWLLKWQLLEKLRRKTGSDWTDRRLAAVDLKWAALDPADSIFTRLAGQTERLVTDKQLAEAVGQAPADTRAWLRAEIVRRFPEQVIAASWSHLTVRGESSGDENVENSMVSLDMSNPLKFTESLCSEAFERVHTASGIVESLR | not soluble
20 | GAASPGPSRPGLVPVSIIGAEDEDFENELETNSEEQNSQFQSLEQVKRRPAHLMALLQHVALQFEPGPLLCCLHADMLGSLGPKEAKKAFLDFYHSFLEKTAVLRVPVPPNVAFELDRTRADLISEDVQRRFVQEVVQSQQVAVGRQLEDFRSKRLMGMTPWEQELAQLEAWVGRDRASYEARERHVAERLLMHLEEMQHTISTDEEKSAAVVNAIGLYMRHLGVRTKSGDKK | soluble
21 | MANYWLYKSEPFKWSWEMQKAKGETGEEWTGVRNYQARNNMRAMKIGDKGFFYHSNEGLDVVGIVEVCALSHPDSTAEGDLKWDCVDIRAVCDMPQPVSLKDVKANPKLEKMSLVTSMRLSVQPVTEEEYLEVCRMGGLANPPKSPDLEHHHHHH | soluble
